Reference: patent US20230235059A1 (SORRENTO THERAPEUTICS, published 2023)
Where a chain is given by its changes, count along the chain named.

Key:
[1] = molecular target: T1, Recombinant cynomolgus monkey PD-1-His (Sino Biological catalog #90311-C08H) (cynomolgus monkey, UniProt Q15116 25-167 (human entry)); experiment: SPR (BIACORE), antibody captured on anti-human Fc, PD-1-His as analyte
T1 construct: Bought protein; also called cyno PD-1-His; cynomolgus monkey PD-1 antigen; not shown: His tag
T1 chain: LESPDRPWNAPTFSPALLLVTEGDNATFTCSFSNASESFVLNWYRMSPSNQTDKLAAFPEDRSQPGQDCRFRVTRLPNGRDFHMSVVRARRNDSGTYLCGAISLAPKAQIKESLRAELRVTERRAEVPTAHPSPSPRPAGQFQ
Experimental: (§1) Binding kinetics of anti-PD1 antibodies with PD-1 proteins from different species was measured using surface plasmon resonance (SPR). […] The PD-1 proteins from human (catalog #10377-H08H-B), cynomolgus monkey (catalog #90311-C08H), rhesus monkey (catalog #90305-K08H), and mouse (catalog #50124-M08H) were obtained from Sino Biological. Anti-human fragment crystallizable region (Fc region) antibody was immobilized on a CMS sensor chip to approximately 8,000 RU using standard N-hydroxysuccinimide/N-Ethyl-N′-(3-dimethylaminopropyl) carbodiimide hydrochloride (NHS/EDC) coupling methodology. […] Recombinant human, cyno, rhesus and mouse PD-1-His were serially diluted in a running buffer of 0.01 M HEPES pH 7.4, 0.15 M NaCl, 3 mM EDTA, 0.05% v/v Surfactant P20 (HBS-EP+). All measurements were conducted in HBS-EP+ buffer with a flow rate of 30 μL/minute. A 1:1 (Langmuir) binding model was used to fit the data. All BIACORE assays were performed at room temperature.

[2] = molecular target: T2, Recombinant mouse PD-1-His (Sino Biological catalog #50124-M08H) (mouse, UniProt Q02242 25-167); experiment: as above
T2 construct: Bought protein; also called mouse PD-1 antigen; not shown: His tag
T2 sequence: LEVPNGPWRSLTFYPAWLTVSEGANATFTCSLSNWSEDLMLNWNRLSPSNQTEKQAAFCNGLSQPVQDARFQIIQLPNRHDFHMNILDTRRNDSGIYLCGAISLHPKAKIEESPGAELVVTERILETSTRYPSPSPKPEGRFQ
Experimental: as §1

[3] = molecular target: T3, Recombinant rhesus monkey PD-1-His (Sino Biological catalog #90305-K08H) (rhesus monkey); experiment: as above
T3 construct: Bought protein; also called rhesus PD-1-His; rhesus monkey PD-1 antigen; not shown: His tag
T3 chain: T1 chain with A10P, Q67R, R75Q
Experimental: as §1

[4] = molecular target: PD-1 in the Promega PD1/PD-L1 blockade reporter bioassay (Cat. No. J1250) (human, UniProt Q15116 25-288); experiment: cell-based or functional assay
Sequence of PD-1 in the Promega PD1/PD-L1 blockade reporter bioassay (Cat. No. J1250) (Q15116 25-288 limits assumed): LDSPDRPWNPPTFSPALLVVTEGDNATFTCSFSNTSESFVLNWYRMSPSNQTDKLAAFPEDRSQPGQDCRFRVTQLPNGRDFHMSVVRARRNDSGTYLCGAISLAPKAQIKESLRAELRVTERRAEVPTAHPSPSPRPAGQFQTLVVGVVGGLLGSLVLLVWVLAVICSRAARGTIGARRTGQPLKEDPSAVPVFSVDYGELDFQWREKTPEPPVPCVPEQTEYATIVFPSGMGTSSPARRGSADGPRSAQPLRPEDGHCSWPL

binding result [1]: binds
binding result [2]: binds
binding result [3]: binds
EC50 of fold induction of Relative Light Units (RLU), PD1/PD-L1 blockade reporter bioassay [4]: 0.493 µg/mL
B1: HPD-BB9 (antibody, V domains shown)
VH: QVQLVQSGAEVKKPGASVKVSCKASGFRLTTNGISWVRQAPGQGLEWMGWISAGGGPTNYAQKLQGRVTMTTDTSTSTAYMELRSLRSDDTAVYYCAKGLYGTKDAWGQGTLVTVSS
VL: QSVLTQPPSVSEVPGQRVTISCSGGGSNIGSNAVNWYQHFPGKAPKLLIYYNDLLPSGVSDRFSASKSGTSASLAISGLRSEDEADYYCAAWDDNLSAYVFATGTKVTVL
notes: also called HDP-BB9; anti-PD1 clone HPD-BB9
